In patent publication US20250002610A1 (Genmab, published 2025) one finds EC50 data, which are given here for one molecule.

Assay [1] has as its target T1, human DR4 (Death Receptor 4), cell surface expressed on human tumor cell lines (human, UniProt O00220 24-468).
T1 construct: also called TNFRSF10A; TRAIL-R1
T1 sequence: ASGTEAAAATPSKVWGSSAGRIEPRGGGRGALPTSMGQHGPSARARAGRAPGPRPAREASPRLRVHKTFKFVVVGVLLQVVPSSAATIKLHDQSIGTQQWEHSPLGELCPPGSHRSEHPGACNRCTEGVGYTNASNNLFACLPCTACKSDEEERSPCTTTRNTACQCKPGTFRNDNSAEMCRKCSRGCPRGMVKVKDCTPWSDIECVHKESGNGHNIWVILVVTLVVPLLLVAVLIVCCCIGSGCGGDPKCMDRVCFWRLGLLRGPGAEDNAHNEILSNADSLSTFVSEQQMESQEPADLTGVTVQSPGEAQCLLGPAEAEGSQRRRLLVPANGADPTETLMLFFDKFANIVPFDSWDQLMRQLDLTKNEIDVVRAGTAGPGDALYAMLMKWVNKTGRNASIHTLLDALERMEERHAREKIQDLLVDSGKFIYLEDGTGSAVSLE
Nature of the assay: flow cytometry, MDA-MB-231 cells, n = 3.

In assay [2] the target is T1, human DR4 (Death Receptor 4), cell …. Put plainly: flow cytometry, HCT-15 cells, average ± SEM. For orientation: A flow cytometer gives signals particle by particle.

B1: BisG1-b12-FERL/DR4-FERR (bispecific antibody, human IgG1, kappa, lambda)
heavy 1: QVQLVQSGAEVKKPGASVKVSCQASGYRFSNFVIHWVRQAPGQRFEWMGWINPYNGNKEFSAKFQDRVTFTADTSANTAYMELRSLRSADTAVYYCARVGPYSWDDSPQDNYYMDVWGKGTTVIVSSASTKGPSVFPLAPSSKSTSGGTAALGCLVKDYFPEPVTVSWNSGALTSGVHTFPAVLQSSGLYSLSSVVTVPSSSLGTQTYICNVNHKPSNTKVDKRVEPKSCDKTHTCPPCPAPEFERGPSVFLFPPKPKDTLMISRTPEVTCVVVDVSHEDPEVKFNWYVDGVEVHNAKTKPREEQYNSTYRVVSVLTVLHQDWLNGKEYKCKVSNKALPAPIEKTISKAKGQPREPQVYTLPPSREEMTKNQVSLTCLVKGFYPSDIAVEWESNGQPENNYKTTPPVLDSDGSFLLYSKLTVDKSRWQQGNVFSCSVMHEALHNHYTQKSLSLSPG
light 1: EIVLTQSPGTLSLSPGERATFSCRSSHSIRSRRVAWYQHKPGQAPRLVIHGVSNRASGISDRFSGSGSGTDFTLTITRVEPEDFALYYCQVYGASSYTFGQGTKLERKRTVAAPSVFIFPPSDEQLKSGTASVVCLLNNFYPREAKVQWKVDNALQSGNSQESVTEQDSKDSTYSLSSTLTLSKADYEKHKVYACEVTHQGLSSPVTKSFNRGEC
heavy 2: QVQLQESGPGLVKPSGTLSLTCAVSGGSISSYSWWSWIRQPPGKGLEWIGELYHSGSTNYNPSLKSRVTISVDKSKNQFSLKLRSVTAADTAVYYCVRGVATIDYWGQGTLVTVSSASTKGPSVFPLAPSSKSTSGGTAALGCLVKDYFPEPVTVSWNSGALTSGVHTFPAVLQSSGLYSLSSVVTVPSSSLGTQTYICNVNHKPSNTKVDKRVEPKSCDKTHTCPPCPAPEFERGPSVFLFPPKPKDTLMISRTPEVTCVVVDVSHEDPEVKFNWYVDGVEVHNAKTKPREEQYNSTYRVVSVLTVLHQDWLNGKEYKCKVSNKALPAPIEKTISKAKGQPREPQVYTLPPSREEMTKNQVSLTCLVKGFYPSDIAVEWESNGQPENNYKTTPPVLDSDGSFFLYSRLTVDKSRWQQGNVFSCSVMHEALHNHYTQKSLSLSPG
light 2: QSALTQPPSASGSPGQSVTISCTGTSSDVGGYNFVSWYQQDPGKAPKLLIYEVTKRPSGVPDRFSGSKSGNTASLTVSGLQAEDEADYYCSSYAGSNNVMFGGGTKLTVLGQPKAAPSVTLFPPSSEELQANKATLVCLISDFYPGAVTVAWKADSSPVKAGVETTTPSKQSNNKYAASSYLSLTPEQWKSHRSYSCQVTHEGSTVEKTVAPTECS
notes: Fab-arm exchange of IgG1-b12-FERL and IgG1-DR4-FERR; also called bsIgG1-ctrl-FERLxDR4-FERR
As for B1, the EC50 – broadly, the midpoint of the concentration-response curve – in assay [1] came to 0.92 µg/mL; in assay [2], 0.56 µg/mL.
